B1: SNAP(C): mRNA Display molecule of SNAP tag C-terminal fragment with C-terminal GS linker (SEQ ID NO: 43) (conjugate)
chain: MVDESFTRQVLWKLLKVVKFGEVISYSHLAALAGNPAATAAVKTALSGNPVPILIPCHRVVQGDLDVGGYEGGLAVKEWLLAHEGHRLGKPGLGPAGGSAFKLEVNGSGSGSGSGSKK
modifications: mRNA display linkage; SNAP (C)-GS5
B2: Kpep-splitUb (N): mRNA Display molecule of splitUb(N) with positively charged K-peptide (SEQ ID NO: 55) (conjugate)
chain: MKVSALKENVSALKEKVSALTEKVSALKEKVSALKEGSGSGSGSMQIFVKTLTGKTATLEVEPSDTIENVKAKIQDKEGIPGSGSGSGSKK
modifications: mRNA display linkage; Kpep-splitUb(N)-GS4
B3: Epep-splitUb (N): mRNA Display molecule of splitUb(N) with negatively charged E-peptide (SEQ ID NO: 56) (conjugate)
chain: MKVSALENEVSALEKEVSVLEKEVSALEKEVRALEKGSGSGSGSMQIFVKTLTGKTATLEVEPSDTIENVKAKIQDKEGIPGSGSGSGSKK
modifications: mRNA display linkage; Epep-splitUb(N)-GS4
B4: SNAP(full): mRNA Display molecule of full-length SNAP tag with C-terminal GS linker (SEQ ID NO: 44) (conjugate)
chain: MDKDCEMKRTTLDSPLGKLELSGCEQGLHRIIFLGKGTSAADAVEVPAPAAVLGGPEPLMQATAWLNAYFHQPEAIEEFPVPALHHPVFQQESFTRQVLWKLLKVVKFGEVISYSHLAALAGNPAATAAVKTALSGNPVPILIPCHRVVQGDLDVGGYEGGLAVKEWLLAHEGHRLGKPGLGPAGGSAFKLEVNGSGSGSGSGSKK
modifications: mRNA display linkage; SNAP (full)-GS5
B5: SNAP(N): mRNA Display molecule of SNAP tag N-terminal fragment with C-terminal GS linker (SEQ ID NO: 42) (conjugate)
chain: MDKDCEMKRTTLDSPLGKLELSGCEQGLHRIIFLGKGTSAADAVEVPAPAAVLGGPEPLMQATAWLNAYFHQPEAIEEFPVPALHHPVFQQGSGSGSGSGSKK
modifications: mRNA display linkage; splitSNAP (N)-GS5

Key:
[1] = Complementation assay of splitSNAP-tag using mRNA display (reaction with SNAP-Biotin, streptavidin pull-down, qPCR); format: biochemical; details: for Recovery rate (%): apparent recovery rate corrected with display efficiency; for Recovered nucleic acid amount (molecules): reaction with SNAP-Biotin 37° C. 30 minutes, streptavidin pull-down, qPCR; for Apparent recovery rate (%): recovered / theoretical value of added nucleic acid amount
Description: To this solution, ¼ amount of a PBS solution containing 5 mM DTT, 2500 nM SNAP-Biotin (New England BioLabs, Inc.) was added, and the enzymatic reaction was performed at 37° C. for 30 minutes.

[2] = system: anti-ubiquitin antibody fixed bead; test: Complementation assay of splitUbiquitin with Kpep/Epep charged peptides using mRNA display; format: binding; details: for Recovered nucleic acid amount (molecules): Display molecules 0.2 μM each (pairs) or 0.4 μM (alone), anti-ubiquitin antibody beads, qPCR; for Recovery rate (%): apparent recovery rate corrected with display efficiency; for Apparent recovery rate (%): recovered/input nucleic acid amount
Description: Next, Display molecules composed of constructs (SEQ ID NO: 55 (P-11) to SEQ ID NO: 57 (P-13)) in which splitUb(N) and splitUb(C) each were added with a charged peptide sequence (K-peptide containing an amino acid having a positive charge) (sometimes referred to as “Kpep”) or E-peptide containing an amino acid having a negative charge (“Epep”)) were prepared. When the added peptides are attracted to each other by charges, splitUbs become in proximity to each other and recovered by an anti-ubiquitin antibody. Conversely, when the added peptides are repelled to each other by charges, splitUbs are not recovered. Once this is validated, the complexation of molecules added to splitUbs can be evaluated with the recovery rate through ubiquitin and anti-ubiquitin antibodies.
Reactions were made under the same conditions as in condition 1, except that, in condition 2, the Display molecule of Epep-splitUb(N) and the Display molecule of Epep-splitUb(C) were added at 0.2 μM; in condition 3, the Display molecule of Kpep-splitUb(N) was added at 0.4 μM; in condition 4, the Display molecule of Epep-splitUb(N) was added at 0.4 μM; and in condition 5, the Display molecule of Epep-splitUb(C) was added at 0.4 μM.

| Molecule | Recovery rate (%) [1] [%] | Recovered nucleic acid amount (molecules) [1] [molecules] | Apparent recovery rate (%) [1] [%] | Recovered nucleic acid amount (molecules) [2] [molecules] | Recovery rate (%) [2] [%] | Apparent recovery rate (%) [2] [%] | recovery rate higher than other controls ([1]; in the presence of SNAP-Biotin) |
| --- | --- | --- | --- | --- | --- | --- | --- |
| B1 | 0.035 | 6.76E+06 | 0.007 |  |  |  |  |
| B2 |  |  |  | 2.28E+06 | 0.0008 | 0.0005 |  |
| B3 |  |  |  | 3.77E+05 | 0.0004 | 0.0001 |  |
| B4 | 14.364 | 4.78E+09 | 4.740 |  |  |  | at least 50 times |
| B5 | 0.097 | 6.26E+07 | 0.062 |  |  |  |  |
